Patent publication US20240307564A1 (SUZHOU TRANSCENTA THERAPEUTICS, published 2024)

What was measured:
[1] = target: human CLDN18.2 (human); test: cell-based or functional assay
[2] = target: T1, human CLDN18.2 (human); test: KinExA on gastric cell lines
T1 construct: On HEK293-CLDN18.2 and MKN45-CLDN18.2 transfected cells and on the gastric cell lines NUGC4 and KATOIII (endogenous); also called Claudin18.2; claudin 18 splice variant 2

ADCC EC50 on NUGC4 cells [1]: ~0.59 µg/mL
ADCC reporter EC50 [1]: 0.05 µg/mL
CDC activity [1]: > 20 fold
fold higher affinity than IMAB362 [2]: > 8 fold
B1: 18B10-HaLa (antibody, human IgG1, kappa, V domains shown)
VH: QVQLVQSGAEVKKPGASVKVSCKASGYTFTGYNMNWVRQAPGQGLEWMGNIDPYYGGTSYNQKFKGRVTMTIDKSTSTVYMELSSLRSEDTAVYYCARMYHGNAFDYWGQGTTVTVSS
VL: DIVMTQSPDSLAVSLGERATINCKSSQSLLNSGNLKNYLTWYQQKPGQPPKLLIYWASTRKSGVPDRFSGSGSGTDFTLTISSLQAEDVAVYYCQNDYSYPLTFGGGTKVEIKR
notes: humanized; variable regions fused with human IgG1 and human kappa constant regions; also called humanized 18B10 HaLa
